From article doi:10.1101/2025.08.07.669093 (bioRxiv, 2025)

Legend:
Test in all cases: ITC
[1] = molecular target: RelCt^R215E (Chlorobaculum tepidum)
[2] = molecular target: Rel from Chlorobaculum tepidum, full-length (Chlorobaculum tepidum (TLS entry; …, UniProt Q8KC80)
[3] = molecular target: Escherichia coli RelA, full-length (Escherichia coli (K-12 entry; strain …, UniProt P0AG20)
Sequence of Escherichia coli RelA, full-length (Escherichia coli (P0AG20 whole entry): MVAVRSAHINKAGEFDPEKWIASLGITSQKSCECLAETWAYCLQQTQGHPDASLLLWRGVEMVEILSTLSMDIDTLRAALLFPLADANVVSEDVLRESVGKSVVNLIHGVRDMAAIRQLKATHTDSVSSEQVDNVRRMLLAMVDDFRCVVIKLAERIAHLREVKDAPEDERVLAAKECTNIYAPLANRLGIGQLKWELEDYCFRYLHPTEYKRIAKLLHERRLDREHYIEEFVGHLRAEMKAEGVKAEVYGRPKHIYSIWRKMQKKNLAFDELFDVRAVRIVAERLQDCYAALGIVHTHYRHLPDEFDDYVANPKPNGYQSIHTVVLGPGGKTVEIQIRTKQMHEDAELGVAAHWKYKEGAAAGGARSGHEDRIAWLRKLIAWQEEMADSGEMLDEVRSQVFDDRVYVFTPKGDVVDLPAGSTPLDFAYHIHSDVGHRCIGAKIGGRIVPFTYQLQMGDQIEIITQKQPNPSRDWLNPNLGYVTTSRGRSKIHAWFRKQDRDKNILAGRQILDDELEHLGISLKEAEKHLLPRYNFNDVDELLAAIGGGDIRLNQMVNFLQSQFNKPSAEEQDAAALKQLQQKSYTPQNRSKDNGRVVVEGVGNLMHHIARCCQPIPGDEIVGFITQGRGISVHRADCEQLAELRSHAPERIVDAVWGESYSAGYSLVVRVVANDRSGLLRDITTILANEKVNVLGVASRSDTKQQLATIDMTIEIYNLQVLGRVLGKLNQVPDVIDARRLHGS

Row | Kd [2] | Kd [3] | other results | Binder
1 | 21 nM | – | fold drop in affinity against RelCt [1]: 28 fold | Nb585 (VHH) VHH: QVQLQESGGGLVQAGGSLRLSCAASGFTFEDYTIGWFRQAPGKEREGVSLISNSDGFTSYADSVKGQFTISSENAKNTVYLQMDNLKPEDTAVYYCAATEVLAHLMWRPSNWGYWGQGTQVTV
2 | – | 13 nM | – | Nb94 (VHH) VHH: QVQLVESGGGMVQPGGSLRLSCAASGFTFSTYSMGWFRQAPGQEREFVAAISWSGDSAYYADSVKGRFTISRDNAKNTVYLQMNSLKFEDTAVYYCNADLDGLGYDYWGQGTQVTVS
3 | – | 157 nM | – | Nb96 (VHH) VHH: QVQLQESGGGLVQAGGSLRLSCAASGSIFDIKVMAWYRQAPGKSRELVAVHASADDSTTYEKSVKGRFTISRDNAKNTVYLQMNSLKPEDTAIYYCNRIPNFTHWGQGTQVTVS
4 | 186 nM | – | – | Nb898 (VHH) VHH: QVQLQESGGGLVQAGGSLRLSCAASGSIESINAMAWYRQAPGKPRELVAVIAKSDGSTTYAVPVKGRFTISRDDAKNTVYLQMNSLKPEDTAIYYCNKIPNFTYWGQGTQVTVSS
5 | – | – | binding result [3]: no binding | Nb120 (VHH) VHH: QVQLVESGGGLVQPGGSLRLSCAASGTIRSLNAMAWYRQAPGKERELAARISSGGTTTYADSVKGRFTISRDNAKNTLYLQMNSLKPEDTAVYYCKANRFSTYGYRDDIWGQGTQVTVS
